The assay has as its target SARS-CoV-2 S蛋白 (on virus particles) (SARS-CoV-2) (UniProt P0DTC2). The assay is described as follows: cell-based or functional assay.

The substance REGN10987 (antibody) returned a 中和效率(IC 50), 假病毒中和 (MLV pseudovirus, ACE2-HEK293) of 0.162 µg/mL.
